Laboratory results: the NTF2 design screens of Basanta et al. (2020)

Test: protease stability score; higher = more stable; yeast display proteolysis, trypsin and chymotrypsin;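 also: relative to predicted unfolded state with 0 unfolded-like and 1 meaning tenfold more protease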

Sequence | protease stability score
DEDRESFEEVSRLLMEDIKTGDEDSWKKLADPHDRIVVGDKTSIGMETSIHLLRVLIHHIRFKDSKIKDIHSQGDKLHLETHLHGEVNGVEYHTFSHIVVRKVDGKWHLESVIII | 1
DEDRESMLEHFRLLVEQTKTGNEESTEENIDPHVRLIFNGQEYHGRHEVARYLVEIWRRVDHVRIHLTHMEVYDGVMEIHGQYHLDFDGRHVTHEFRIIFTKVDGRWRIHELRVQ | 1.38
DEDREVAENMVRLFIHFLLTGNEERLNQYFDPHTLLIVGDKRYHGMEESNKWIVELWTERVEIRHIEVDYYGDKVHATISGHHVGIVDGKRIETQVDFHFRIDKIDGRWVAREVEIRHD | 2.06
DEDREWIERFNRILIESLTTGDEHTLKELIDPNARLVINGRDIHGREEFVRLLSEMGVKHFHVHDVKVVGNKAVTRGILYFNGREYDVDVFTRKIDGRWLYESLEVK | 2.02
DEDRFETELAVDLWLRTLETGDEHFLHRLADPRVQLEYGNFHYHGRHEFLHWFHDLKRKYKNLRVDIRDVRDIDGRIILHTELKQGDKHIESKVYMEKYDGRWLIKSYEIR | 0.971
DEDRHDVKRWLEFLVKLMETGDEEVLRTLADPNTRVDINGRDNHGWESVVTVLRELGANHIHHIEIKHLHIINGRVHIDMRVHRIQGDKTLDFDIHLHANKYNGRWHLKSVQIH | 1.24
DEDRHYIEQALEILEHNIQTGNWEIIARLLDPNMRLHIGDKDIHGREESADIIRHWIHRFPNLRVRIDHFEIYGNKVIFRGTMDFDGQRHDISIFSHKVNGRWLIKSIEYR | 1.59
DEDRIISEEAAKLFLHLLLTGDEKVFDEYLDPRTRLIIGDKEFIGRETLRKTMQEFRHKAGIDHMHIRDSRIELIDGRVVQHLEIHVRFNGKSEDRVIHVFIEKINGRWHIHFVEVKID | 1.53
DEDRKEAERIARQTLHDLRTGNEDMLTKLLDPHARIDVNGVDNIGWEIIVKHVKERRHQWRIHHEHWRDYHFINGVIHIDLEVHIRVDGVDIRTETRVHILIINGRLREIRVEVD | 0.772
DEDRKEMEEILRLYLEAFLTGDEKLLRHLVDPHVKLDINGVRLHGMDLLIKLLIHEARFFKGMKVEIRIHRVHVQGDKVENDTELILIFDGREFRRRTFLLWLKIDGRWLLESERIE | 1.45
DEDRKHIHHMFELWVHFLHTGNEHQLINLVDPHVKLEIGDKHHHGWEQLETFERAFKKEFKHMKIRFELTDIRLINGRMEIDGRDHLHIGDKTIERHLHLVVTKVDGRWQIHSVIVD | 1.48
DEDRKHMEQAITLLKRLWETGNEEDILKNLDPNVRFEVGEWVDHGRRSIEIFRERFKNLRVHDTRHKDRDVVDGRAHLHGEYNGEINGRLINTHVILVIEKVNGRWYFESIHIH | 1.19
DEDRKHREHLSELFQKLWLTGDWRTLWRLLDPHVRLEVLIDGKRIEKIGRENISEMLHRFLEFLGVDHRELHDMEIQGDKVHLDERIHYNGREQKLHIEFKFINGRMHEIKIRYE | 1.58
DEDRKHWETLLKIAFHLFRTGDEEKWERMFDPHARLHINGKDIHGREDIVHFLQEHLDHLWIEDVKVERMSVYNGVLHVDIRIHYRQGDKVYDVESSIDNIVIDGKSHRIRFDFH | 1.26
DEDRKIFKLVFEITKHAWETGDEEHLDRLLDPNTRIEIGDKILHGREHIEEWVDRVDHLHLHHFRLDDYRYQGDKAIIHGHVNGTSVIDGRSERYTSTIDFIVLKVNGRWRLHSVRVT | 1.41
DEDRKLFTEATHRLNNVLETGDEDSLLRLMDPNTRYKVNGVELIGREMVKHMFRILMHHWRVKSHDYHDIEIQGDWAVIDSRVDGVIDGRRTHTQLRVESIKIDGKWFDHEVTLE | 0.398
DEDRKMAEHWIRIWYHLVETGDEEEINNFADPHTRMEVNGVEFHGRELVKHSNHKLLRDAGVDKIHVEIHEMRVIGNKVEIHGTIRFNGQEYHFILIVLKVNGRWVIESMKHE | 0.724
DEDRKNEEIAEKIQLRVLKTGDEDELHHLVDPNVKLHIDGREFHGMELSTHLLSRWHEKYKGLKWRLRDSQSQGDFVIIHFHVHVNGKRLRFVVIARKVDGRWVVEEIELE | 1.4
DEDRKTVELAERLLKEMFDTGDEHTMRSLLDPNVRSNIGDWEFIGMDELSRWFEEVLKKLGVDHRSLKIKRSHTIGDKVILRSTLEFQQGDKTMKVDMRLVATKINGRWTVEEVEMK | 0.81
DEDRKVAEEVIRIITHESRTGDWDRISENLDPDARVEVDGRHVHGRERFVEFVLHARIEHSHVHDVSMINGRLKVDTELRGIWNGREIDTQVYIISLKIDGRWYLESIHIS | 1.34
DEDRKYVEELMRKIWEAMHTGDEKFFNNLADPHYRLRIGDKNFIGRDEFHKFLRHIRMTVEDFQERDSDEIDGVIIIIGETTYIFIVNGQEKHHVVEVEIIIIKIDGRWLLHSVNIH | 1.27
DEDRLREQATNFIEAMQTGDTKRVDEQIDKDAQLVVGEKKYEGREQISTFVKEMHHQFDHVRLQRVTVSGNKVLLDVVMDFNGKDLRINIVIHMNNGKISQVQVDYTNPEDAKTARG | 0.914
DEDRQDAEYALRLWLETWVTGDEDTLLRLMDPHYRLEIGEYHRHGRENVVTFLRFLVEHLGIKHTHVEVHDLDSQGDKVRAHTTLHNKYNGVELVIDSEIILTKINGRWYFKSMHFG | 1.2
DEDRRDAEEFIRLFHEAVQTGDEDTLRKFIDPRARIDVNGRILHGREEYLEWMREVLRFFKNVRFEVDLHDVKIVGDKIHVDTTLWTHFNGRDLELKTRVHLEKVNGVWRIKRIDFE | 0.77
DEDRRDAEYARDIWTETLETGDEDLLHELMDPHVRIEIGDKETHGRENYVKKFIRMGVRLKHRNDKHVTIVNGRVHLFGEFHVIINGRHHDLRVEIVIEKVNGRWVVKSIHVH | 0.688

Sequence | protease stability score
DEDRRDIDDFLRLMLEATHTGDFKSFLELADPNMRIQIGDKEMVGRENIERWFEEDHRQAGIQRVETELRVRSKLLIGNKMHVDIEIRRRYNGVEEVYDVELILLKYNGVWWLEEFRVR | 1.58
DEDRREVQRFIESVVHAIRTGDWRRILELADPNTRLDFDGKVFHGMHVSVKRIIEELEKVKGLRIKDMTTDSVNIYNGVVELDGTLDLEIGDYESHVSAKFVLLKFNGRWFIHEESTR | 1.59
DEDRRHADEVLELFSEAFLTGNEEEMRKLADPHVRIDFNGRLKIGMETYKEEMDRFDHTEMRLESKHVHVFDGRVRIDGRLRIILRIGDKEIRHDHQVDILITKVDGRWIIKSMHIE | 2.53
DEDRRIAEHLIKLYLQSTRTGDENSIRHLMDPNTRVIVGDKDRIGREAAEELLRRVDHLHDYKIEDIRFVGDFIDVEMRVDGEFDGVREHYRVILILFKVDGRWRIHLIEIR | 1.55
DEDRRLMEELTRHRIDLKKTGNEELLRTLADPNTRALVNGKDMHGREQIATWLWQFREDLGVDHIDLEDFHVQGDKMEVHLDWKVNGQRIEVIVIIYIVDGRIKKEEMHFT | 0.416
DEDSELAQIYNDLWRHTMETGDEHLSRRLLDPEVRLIINGREFIGWSLAIEVEHRLFKRFDHVHIDLEHITIQGDKIHTNSTLHIHFNGVTFEHRIHISIKKVNGRWINHTQRIQ | 0.801
DEDSEMVWRMLEDWLHNFLTGNEELLEHLMDPNARFEQGDKEIHGREKIAKFLRKELEDLGVKIEFRDTSIKSINGRAHNDGTNIIRVNGREIRRDTRIDLTVIDGRIKEIRIEIN | 1.28
DEDSEQARKFTELLFESIRTGDWKSLERLFDPNTRLEVGEFEHHGMEEATKFLIELRLEDFHIHSTKIDIQGEWIHIRLDGVERGYIGDKKRDTRSHIRLDNLKINGRWINQRLIIEIR | 1.13
DEDSEVLSRILLHLTHHFSTGDFKEVTEMFDPHARAFVGDKELVGMELLRKFLHDLTKRLGVDHHDLRDDHIEIQGDKLRSEGKLRIDVNGREIKHHVHWILEKIDGRWVIREFRIV | 1.23
DEDSKHVEHLMRLLIRLLITGDEDTLLNLIDPHARIDINGKEVHGREWAEKFIRRFERDLGVKHNHIEHIELQGDKAHVDFSLRIGDKMIQVHIDIWIVDGKLQSIRIKIK | 1.54
DEDSYNSHRALEDLWRDLETGDEENLNKLADPHARVKQGDKEFHGMHHWIHFLESLGITKVHVRIHRIQTQGDKVRIVGEIEFNGRRHHSIIFIEKINGVWLVHKMEIK | 1.41
DEDTARKQVQIYKDNDPNQLVRMFDENARLKVGDQTVDGREELERWVKRLRTRVDRYSYKNVDIQGERVVIDMVMVVDGKQVEFVVEFVVEDGRIKNAKVQARNKDEETKLQEAIG | 1.37
DEDTDWIREMHRRHTEALRTGDEDTLRDLMDPHVRIFQGDKIHIGMHDLAKFLKEWRIKEIRVDIKHIESQGDKLRFSGDVEVHFEFNGKEVDLKLKALIVIVKINGKWVFKEIHHI | 0.862
DEDTEAAIRILEDFTRHILTGDFERARELLDPHTRFDVNGVDLHGMDEVTRLLRIWKKRFDVWESDVHDVRSYDGRIHIDTHLRVRYDGVEEHTRTIFIFNKVNGRWLIEEIRVR | 1.44
DEDTEAAREMLEIIVKSLFTGDEKSLLRLADPNWKLHQGNFSWHGRESVRRFHKEIRVHFDDIRVHRFSTINGRVHIDGHIHITVHIDGQTIHIDSDTTWHMVIINGKMHHAIIIHV | 0.881
DEDTEDLKRLIKLFVDLIRTGDWEELEKLLDPNVRLHFNGRDYHGRELALELMKVFGVDHIQLREVRVVNGKAENRTELIVNGREHEEHVIMEKIDGRWRIRSFEFR | 1.3
DEDTEEMRRFLKAFIRALETGNFEETLRLLDPNVRIRIGDKQLIGREEWHKWRERVDHYEVDDIEIEDMRVIGNKVHVFGRVDIKLIIGDKEHQDRKEVHIIMLKVNGRWLIHEIEVH | 1.91
DEDTEEVRKADKIYIHYLLTGDEHKNNRLADPNVRLHWNGREFHGMELFTEAFREIRHELRFDHITHHHLRMFNGRLDSDTRVDGDINGVRTIFEMKLTLLKVDGRWVLKSTEIR | 1.26
DEDTEEWRHLLEEYREFIETGDEDYLRTMLDPHVRVVVNGRDHHGWKAFNFMLRHIRVRHVHIHDIRLFNGQVEVDSRIDGIVNGRRLIFRLDIVAFKIDGQWIAQSFTII | 1.65
DEDTEIAFELVDLVMKSLKTGDEHLMLRLMDPHTRLEVGDKEHHGWEEILKELSEIRIHLEDVDHRDVRIYGEKIHVDVEVDITIEYNGRRTRVKTRLEVDILKVNGQWRVKQVSLK | 2.07
DEDTEIALKLHRLILHFIHTGDWENFAKYLDPRTKLHVGEFNNVGMEEIRKTWKHLRLRIDMYDERRVEVIDGRLHVEGEIRSTVHIGDKELHFERDSNFILVVINGRVKRIEINIV | 1.47
DEDTEKAEKFVHSFLMAMLTGDEEELWKYLDPRVRTIIGDKHYHGREQTKKAWEELGIDHSDVERFHVHIQGDKVEVHIDLRVHVNGRSYDVHIILIVTKINGKWYIDTLIFRKV | 1.44
DEDTEKHKELLEMLVVAYLTGDFRHWWDLADPHVKLDQGDKHLHGREDMVEWIRRFIKKFKNVQVKIRHIHHQGNKDNIDGILDVDGREYHVEIIIVLVDGVIRSEEIRVK | 1.87
DEDTEKLEKMIEELFKLWLTGDEEKLTHLADPNMRVDVNGRDLHGRHLMSSLWRQIRIEDQRLRIRDWEFFDGRVTIHSHITVRGHINGRHEEITHDVRIVVDKINGRWIIREFRIH | 1.27
DEDTEKLKKSLEVIWRLLHTGDENSLEHLMDPNARLDINGVTQVGRTASKIIIDRFDHIRHIHINDVRFIDGRAHVHGKTDGIQGDKRYEVSMEIILLKINGRWIIHQFYTE | 1.38
